For test [1], the target named is 14-3-3 proteins (all seven isoforms). Kind of test: Fluorescence polarization titration, statements across the 14-3-3 isoforms. In kind it is binding, human. The procedure:
TASK-1 or TASK-3 C-terminal fluorescent peptides (10 nM), comprising the last 15 amino acids of the respective C-termini, were titrated with concentrations of the 14-3-3 proteins ranging from 1 nM to 120 µM (Fig. 2), and the equilibrium dissociation constants of 14-3-3 proteins were calculated for TASK-1 phosphorylated at S393 (TASK-1 pS393; the conserved serine residue of the mode III 14-3-3-binding motif) and for TASK-3 phosphorylated at S373 (TASK-3 pS373) (Table 1). They ranged from 7.5±0.14 µM (mean±s.e.m.; 14-3-3β) to 49.4±2 µM (14-3-3τ) for TASK-1, whereas dissociation constants for TASK-3 ranged from 110±10 nM (14-3-3η) to 3.6±0.44 µM (14-3-3σ). The latter value matches the result determined previously by [Anders et al. (2013]) for the TASK-3 C-terminal hexapeptide using isothermal titration calorimetry. The dissociation constants of the seven mammalian 14-3-3 isoforms for the same TASK C-terminal peptide differed up to sevenfold for TASK-1-derived peptides and up to 30-fold for TASK-3-derived peptides. […] No binding of any 14-3-3 isoform to any TASK C-terminal peptide was observed when the peptides were not phosphorylated.
Fig. 2. […] Fluorescence polarization titration of fluorescein-labeled TASK-1 pS393 (black), TASK-3 pS373 (red) and TASK-3 pS373 ΔV374 (blue) peptide (10 nM) with increasing concentrations of the indicated 14-3-3 isoform. Fluorescein was excited at 485 nm, and fluorescence polarization was monitored at 535 nm. A monophasic fit was used to fit the data (Goodness-of-fit: R^2 from 0.76 to 0.98). No binding was detectable for the unphosphorylated TASK C-terminal peptides. The assay was repeated at least six times for each data point with two batches of independently purified 14-3-3 proteins. Error bars depict s.e.m. (A) 14-3-3β, (B) 14-3-3γ, (C) 14-3-3ε, (D) 14-3-3ζ, (E) 14-3-3η and (F) 14-3-3τ.
[Mant et al. (2011)] report that both serine residues present in the TASK-1 C-terminus can be phosphorylated in vitro by the recombinant catalytic subunit of PKA. […] Next, using fluorescence polarization titration, we determined how phosphorylation of S392 affects the affinity of all seven mammalian 14-3-3 proteins for the TASK-1 C-terminus – either when phosphorylated alone or in combination with phosphorylation of S393 (Table S1). […] Because all Kd values determined for TASK-1 pS392 and the doubly phosphorylated protein (at S392 and S393) were substantially higher than those measured for TASK-1 pS393 (Table S1), we conclude that phosphorylation of S392 cannot substitute for phosphorylated S393 in creating a high-affinity 14-3-3 binding site. On the contrary, our results are consistent with an inhibitory role for phosphorylation of S392 with respect to 14-3-3-mediated binding.
Interactions between 14-3-3 proteins and TASK-1 and TASK-3 C-terminal peptides and variants were investigated using a fluorescence polarization assay ([Moll et al., 2006]; [Muda et al., 2014]). Fluorescein-labeled peptides were purchased from Peps4Life Sciences (Heidelberg, Germany). All measurements were performed in buffer containing 20 mM MOPS, 150 mM NaCl, 0.005% (v/v) CHAPS pH 7.0, using a Fusion™ α-FP microtiter plate reader at room temperature in a 384-well microtiter plater (Optiplate 384, black; Packard, Meriden, CT). 14-3-3 proteins were serially diluted from 100 µM to 1 nM and incubated with 10 nM of fluorescently labeled peptide. The fluorescence polarization signal was detected for 2 s at an excitation wavelength of 485 nm with an emission fluorescence polarization filter wavelength of 535 nm and a photomultiplier voltage of 1100. Data were analyzed with GraphPad Prism 6.0 (GraphPad Software, San Diego, CA) by plotting the obtained fluorescence polarization signal in millipolarization units (mPol) against the logarithm of the 14-3-3 protein concentration. The data were then fitted using a monophasic fit.

Test [2] concerns the target TASK-1 pS392 C-terminal fluorescent peptide (human) (UniProt O14649). Description: fluorescence polarisation; 10 nM fluorescein-labelled peptide titrated with 14-3-3 protein (1 nM to 120 µM in the results, 100 µM to 1 nM in the methods); 20 mM MOPS, 150 mM NaCl, 0.005% (v/v) CHAPS pH 7.0; room temperature; monophasic fit.
The target in test [3] is TASK-3 pS373 C-terminal fluorescent peptide (last 15 amino acids) (human) (UniProt Q9NPC2). The test is described as above.
In test [4] the target is GST-tagged TASK-3 C-terminal 15 residues fusion protein, phosphorylated with PKA catalytic subunit (human) (UniProt Q9NPC2). Kind of test: SPR; GST fusion protein captured by an anti-GST antibody on an HC1000m chip, phosphorylated on the chip with PKA catalytic subunit; 14-3-3 proteins as analyte; 20°C; 150 mM NaCl, 20 mM HEPES, 0.005% (v/v) Tween 20, pH 7.5; equilibrium binding isotherms.

The target in test [5] is TASK-1 pS393 C-terminal fluorescent peptide (last 15 amino acids) (human) (UniProt O14649). Description: fluorescence polarisation; 10 nM fluorescein-labelled peptide titrated with 14-3-3 protein (1 nM to 120 µM in the results, 100 µM to 1 nM in the methods); 20 mM MOPS, 150 mM NaCl, 0.005% (v/v) CHAPS pH 7.0; room temperature; monophasic fit.
The target of test [6] is T1, GST-tagged TASK-3 C-terminal 15 residues fusion protein, phosphorylated with PKA catalytic subunit (human, UniProt Q9NPC2 360-374).
T1 chain: {GST}-SFTDHQRLMKRRK[pS]V
Kind of test: SPR.

[7] abbreviates: fluorescence polarization, best of the seven isoforms, read-out: Kd of the highest-affinity 14-3-3 interaction.

Where two headings read alike, the source gives them in different places. Non-standard residues stand in square brackets, D forms with d. Residues, ends and D or L forms follow the SMILES beside them. No end group written: not given here. pS = N[C@@H](COP(=O)(O)O)C(=O)O

On to `CSCC[C@H](NC(=O)[C@H](CC(C)C)NC(=O)[C@H](CCCNC(=N)N)NC(=O)[C@H](CCC(N)=O)NC(=O)[C@H](Cc1c[nH]cn1)NC(=O)[C@H](CC(=O)O)NC(=O)[C@@H](NC(=O)[C@H](Cc1ccccc1)NC(=O)[C@H](CO)NC(=O)[C@@H](N)CS)[C@@H](C)O)C(=O)N[C@@H](CCCCN)C(=O)N[C@@H](CCCNC(=N)N)C(=O)N[C@@H](CCCNC(=N)N)C(=O)N[C@@H](CCCCN)C(=O)N[C@@H](COP(=O)(O)O)C(=O)N[C@H](C(=O)O)C(C)C` [TASK-3 pS373] (H-CSFTDHQRLMKRRK[pS]V-OH; N-terminus assumed), for which, in test [1] (setting [7]), the Kd is about 0.1 µM.

As for “14-3-3σ (from UniProt P31947 1-248) (natural protein)”, the dissociation constant (Kd) was 100 µM in test [2], 3.6 µM in test [3] and 0.742 µM in test [4].

Consider `CSCC[C@H](NC(=O)[C@H](CC(C)C)NC(=O)CNC(=O)[C@H](CCCNC(=N)N)NC(=O)[C@H](Cc1ccccc1)NC(=O)[C@@H](NC(=O)[C@H](CO)NC(=O)[C@H](CC(C)C)NC(=O)[C@H](CO)NC(=O)[C@@H](N)CS)[C@@H](C)O)C(=O)N[C@@H](CCCCN)C(=O)N[C@@H](CCCNC(=N)N)C(=O)N[C@@H](CCCNC(=N)N)C(=O)N[C@@H](COP(=O)(O)O)C(=O)N[C@@H](COP(=O)(O)O)C(=O)N[C@H](C(=O)O)C(C)C` [doubly phosphorylated peptide] (H-CSLSTFRGLMKRR[pS][pS]V-OH; N-terminus assumed), for which the “Kd values across the 14-3-3 proteins (approximate, Table S1)” value in test [1] (fluorescence polarization titration, all seven 14-3-3 proteins) is listed as “high micromolar range”.

In the case of `CSCC[C@H](NC(=O)[C@H](CC(C)C)NC(=O)CNC(=O)[C@H](CCCNC(=N)N)NC(=O)[C@H](Cc1ccccc1)NC(=O)[C@@H](NC(=O)[C@H](CO)NC(=O)[C@H](CC(C)C)NC(=O)[C@H](CO)NC(=O)[C@@H](N)CS)[C@@H](C)O)C(=O)N[C@@H](CCCCN)C(=O)N[C@@H](CCCNC(=N)N)C(=O)N[C@@H](CCCNC(=N)N)C(=O)N[C@@H](COP(=O)(O)O)C(=O)N[C@@H](CO)C(=O)N[C@H](C(=O)O)C(C)C` [TASK-1 pS392] (H-CSLSTFRGLMKRR[pS]SV-OH), in test [1] (fluorescence polarization titration, all seven 14-3-3 proteins, read-out: Kd values across the 14-3-3 proteins (approximate, Table S1)), the Kd was about 100 µM.

`CSCC[C@H](NC(=O)[C@H](CC(C)C)NC(=O)CNC(=O)[C@H](CCCNC(=N)N)NC(=O)[C@H](Cc1ccccc1)NC(=O)[C@@H](NC(=O)[C@H](CO)NC(=O)[C@H](CC(C)C)NC(=O)[C@H](CO)NC(=O)[C@@H](N)CS)[C@@H](C)O)C(=O)N[C@@H](CCCCN)C(=O)N[C@@H](CCCNC(=N)N)C(=O)N[C@@H](CCCNC(=N)N)C(=O)N[C@@H](CO)C(=O)N[C@@H](COP(=O)(O)O)C(=O)N[C@H](C(=O)O)C(C)C` [TASK-1 pS393] (H-CSLSTFRGLMKRRS[pS]V-OH; N-terminus assumed): the “fold lower affinity for 14-3-3 proteins than the TASK-3 C-terminus” value in test [1] (fluorescence polarization, TASK-1 pS393 versus TASK-3 pS373) is given as 10- to 100 fold. Further, the equilibrium dissociation constant (Kd) in test [1] (setting [7]) was about 10 µM.

B1: 14-3-3τ (natural protein)
chain: MEKTELIQKAKLAEQAERYDDMATCMKAVTEQGAELSNEERNLLSVAYKNVVGGRRSAWRVISSIEQKTDTSDKKLQLIKDYREKVESELRSICTTVLELLDKYLIANATNPESKVFYLKMKGDYFRYLAEVACGDDRKQTIDNSQGAYQEAFDISKKEMQPTHPIRLGLALNFSVFYYEILNNPELACTLAKTAFDEAIAELDTLNEDSYKDSTLIMQLLRDNLTLWTSDSAGEECDAAEGAEN
Regarding B1, the Kd amounted to 100 µM in test [2], 49.4 µM in test [5] and 0.246 µM in test [6].

B2: 14-3-3ζ (natural protein)
chain: MDKNELVQKAKLAEQAERYDDMAACMKSVTEQGAELSNEERNLLSVAYKNVVGARRSSWRVVSSIEQKTEGAEKKQQMAREYREKIETELRDICNDVLSLLEKFLIPNASQAESKVFYLKMKGDYYRYLAEVAAGDDKKGIVDQSQQAYQEAFEISKKEMQPTHPIRLGLALNFSVFYYEILNSPEKACSLAKTAFDEAIAELDTLSEESYKDSTLIMQLLRDNLTLWTSDTQGDEAEAGEGGEN
For B2, the results for the Kd in test [2] and in test [6] were 100 µM and 0.221 µM, respectively.

B3: 14-3-3η (natural protein)
chain: MGDREQLLQRARLAEQAERYDDMASAMKAVTELNEPLSNEDRNLLSVAYKNVVGARRSSWRVISSIEQKTMADGNEKKLEKVKAYREKIEKELETVCNDVLSLLDKFLIKNCNDFQYESKVFYLKMKGDYYRYLAEVASGEKKNSVVEASEAAYKEAFEISKEQMQPTHPIRLGLALNFSVFYYEIQNAPEQACLLAKQAFDDAIAELDTLNEDSYKDSTLIMQLLRDNLTLWTSDQQDEEAGEGN
For B3, the Kd came out at 100 µM in test [2], 0.11 µM in test [3] and 0.115 µM in test [6].

(Values after article PMC4760375, “A dual phosphorylation switch controls 14-3-3-dependent cell surface expression of TASK-1” (Journal of Cell Science, 2016).)
